Reference: article PMC9135631 (2022)

Key:
[1] = target: T1, Latrophilin-3 ADHD-related variant D615N (Lphn3^D615N) (human)
T1 chain: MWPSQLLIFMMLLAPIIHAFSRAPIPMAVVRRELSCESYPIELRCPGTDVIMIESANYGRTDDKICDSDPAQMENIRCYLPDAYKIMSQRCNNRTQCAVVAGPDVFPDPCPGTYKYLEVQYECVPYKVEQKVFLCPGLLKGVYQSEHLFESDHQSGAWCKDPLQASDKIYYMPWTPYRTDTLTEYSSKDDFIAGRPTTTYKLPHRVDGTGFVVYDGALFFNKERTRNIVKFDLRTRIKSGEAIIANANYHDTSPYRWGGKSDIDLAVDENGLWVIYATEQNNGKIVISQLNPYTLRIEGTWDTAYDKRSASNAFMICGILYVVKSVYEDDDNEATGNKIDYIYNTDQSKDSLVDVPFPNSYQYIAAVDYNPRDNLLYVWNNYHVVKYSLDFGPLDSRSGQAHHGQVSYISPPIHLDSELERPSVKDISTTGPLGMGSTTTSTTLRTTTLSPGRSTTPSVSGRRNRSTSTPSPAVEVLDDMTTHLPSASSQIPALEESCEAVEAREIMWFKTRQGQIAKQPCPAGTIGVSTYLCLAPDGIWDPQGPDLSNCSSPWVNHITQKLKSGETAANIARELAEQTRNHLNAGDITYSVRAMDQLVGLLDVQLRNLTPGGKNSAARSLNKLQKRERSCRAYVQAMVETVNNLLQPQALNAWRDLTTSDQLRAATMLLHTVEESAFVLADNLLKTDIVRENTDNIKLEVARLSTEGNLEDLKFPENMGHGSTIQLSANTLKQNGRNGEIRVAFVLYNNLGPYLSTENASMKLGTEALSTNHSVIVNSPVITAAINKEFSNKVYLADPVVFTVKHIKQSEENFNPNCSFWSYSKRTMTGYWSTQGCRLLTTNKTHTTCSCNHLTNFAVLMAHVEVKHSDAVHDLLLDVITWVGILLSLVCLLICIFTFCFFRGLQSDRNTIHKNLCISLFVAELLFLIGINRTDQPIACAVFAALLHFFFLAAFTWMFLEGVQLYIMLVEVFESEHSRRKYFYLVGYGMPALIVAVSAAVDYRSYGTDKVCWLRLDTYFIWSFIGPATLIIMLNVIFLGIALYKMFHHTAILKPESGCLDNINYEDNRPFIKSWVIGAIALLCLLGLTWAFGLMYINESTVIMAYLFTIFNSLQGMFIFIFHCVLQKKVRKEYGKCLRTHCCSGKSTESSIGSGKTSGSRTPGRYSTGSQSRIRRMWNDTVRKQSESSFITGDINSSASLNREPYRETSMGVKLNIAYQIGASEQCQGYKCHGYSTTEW

[2] = target: T2, Latrophilin-3 ADHD-related variant T783M (Lphn3^T783M) (human)
T2 chain: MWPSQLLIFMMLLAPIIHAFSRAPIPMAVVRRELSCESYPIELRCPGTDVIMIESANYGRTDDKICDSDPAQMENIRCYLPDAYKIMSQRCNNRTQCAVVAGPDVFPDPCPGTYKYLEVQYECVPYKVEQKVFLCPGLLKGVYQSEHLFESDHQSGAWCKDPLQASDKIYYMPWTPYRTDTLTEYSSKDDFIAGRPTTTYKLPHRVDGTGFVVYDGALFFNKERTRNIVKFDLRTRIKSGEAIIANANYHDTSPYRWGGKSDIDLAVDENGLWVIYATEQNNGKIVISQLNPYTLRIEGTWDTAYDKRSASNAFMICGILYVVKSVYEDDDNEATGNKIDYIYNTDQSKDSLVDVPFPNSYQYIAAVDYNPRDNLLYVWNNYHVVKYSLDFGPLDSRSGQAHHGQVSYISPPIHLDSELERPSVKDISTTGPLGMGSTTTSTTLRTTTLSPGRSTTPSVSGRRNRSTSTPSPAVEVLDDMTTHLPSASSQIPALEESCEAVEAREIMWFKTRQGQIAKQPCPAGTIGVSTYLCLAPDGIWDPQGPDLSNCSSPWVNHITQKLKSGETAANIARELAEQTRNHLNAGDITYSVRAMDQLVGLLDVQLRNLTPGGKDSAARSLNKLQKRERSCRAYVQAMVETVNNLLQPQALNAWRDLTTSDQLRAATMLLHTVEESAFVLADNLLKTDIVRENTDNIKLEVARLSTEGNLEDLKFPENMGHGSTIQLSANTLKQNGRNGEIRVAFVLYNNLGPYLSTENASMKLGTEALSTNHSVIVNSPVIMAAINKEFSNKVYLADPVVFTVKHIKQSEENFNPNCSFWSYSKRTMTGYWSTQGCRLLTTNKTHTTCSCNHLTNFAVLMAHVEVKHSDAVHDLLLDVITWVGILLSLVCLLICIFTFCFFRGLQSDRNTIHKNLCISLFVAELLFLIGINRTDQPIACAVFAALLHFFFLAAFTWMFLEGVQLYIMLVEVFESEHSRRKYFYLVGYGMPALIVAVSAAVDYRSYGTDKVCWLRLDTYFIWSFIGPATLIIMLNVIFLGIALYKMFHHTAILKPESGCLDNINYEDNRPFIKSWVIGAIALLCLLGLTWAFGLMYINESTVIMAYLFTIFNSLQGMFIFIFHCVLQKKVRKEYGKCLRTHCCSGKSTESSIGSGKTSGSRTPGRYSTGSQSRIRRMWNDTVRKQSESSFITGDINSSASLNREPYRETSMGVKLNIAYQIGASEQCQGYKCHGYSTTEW

Kd [1]: 1.25 nM | Kd [2]: 1.22 nM
B1: soluble FLRT3 extracellular domain fused to the constant fraction of human IgG (FLRT3^ECD-Fc) (Fc fusion)
chain: KSCPSVCRCDAGFIYCNDRFLTSIPTGIPEDATTLYLQNNQINNAGIPSDLKNLLKVERIYLYHNSLDEFPTNLPKYVKELHLQENNIRTITYDSLSKIPYLEELHLDDNSVSAVSIEEGAFRDSNYLRLLFLSRNHLSTIPWGLPRTIEELRLDDNRISTISSPSLQGLTSLKRLVLDGNLLNNHGLGDKVFFNLVNLTELSLVRNSLTAAPVNLPGTNLRKLYLQDNHINRVPPNAFSYLRQLYRLDMSNNNLSNLPQGIFDDLDNITQLILRNNPWYCGCKMKWVRDWLQSLPVKVNVRGLMCQAPEKVRGMAIKDLNAELFDCKDSGIVSTIQITTAIPNTVYPAQGQWPAPVTKQPDIKNPKLTKDHQTTGSPSRKTITITVKSVTSDTIHISWKLALPMTALRLSWLKLGHSPAFGSITETIVTGERSEYLVTALEPDSPYKVCMVPMETSNLYLFDETPVCIETETAPLRMYNPTTTLNREQEKEPYKNPNLP
modifications: HA/Flag epitopes left out; isoform assumed; signal peptide removed and GPS autoproteolysis expected
